Test results: patent publication US20080311130A1 (IMMUNE DISEASE INSTITUTE, published 2008)

biological target: T1, ICAM-1-Fcγ (ICAM-1 residues of 1-480 fused to the Fc of human IgG, R&D Systems) (human, UniProt P05362 28-480); test: flow cytometry on yeast-displayed I domain, ICAM-1-Fcγ 10 µg/ml
T1 construct: range 1-480; Bought (R&D Systems); also called ICAM-1-Fcγ chimera; not shown: Fc of human IgG
Procedure: Cells that were cultured only in SD-CAA or further induced in SG-CAA were harvested, washed with 100 μl of labeling buffer (PBS, 0.5% BSA, 10 mM MgCl₂), and then incubated with ligands at 10 μg/ml in 50 μl of the labeling buffer for 20 min with shaking at 30° C. in a 96-well V-bottom plate. Ligands used in this study were anti-c-myc antibody 9E10 (Santa Cruz Biotechnology, CA) and anti-hemagglutinin antibody 12CA5 (Roche Applied Science), αL I domain-specific antibodies TS1/22 and MEM83³², and ICAM-1-Fcγ (ICAM-1 residues of 1-480 fused to the Fc of human IgG, R&D Systems). After incubation with the primary ligands, cells were washed once in 100 μl of the labeling buffer and incubated with the fluorescence-conjugated secondary antibodies at 5 μg/ml in 50 μl of the labeling buffer for 20 min at 4° C. Finally, cells were washed once in 100 μl and suspended in 100 μl of the labeling buffer for flow cytometry (FACScan, BD Biosciences).
A total of twenty-five yeast colonies were picked from SD-CAA plates from the libraries selected with ICAM-1-Fcγ. These clones were tested for binding of ICAM-1-Fcγ, and sequenced (Table 1). Of these, 15 had unique sequences and were designated as m1 to m15, and all bound ICAM-1 better than wild-type (Table 1). Five clones contained single mutations, and the remainder contained 2-5 mutations each (Table 1). From the clones containing multiple mutations, one to three residues were selected and independently tested as a single substitution (designated with a, b, or c suffix) or independently isolated from the ratchet residue library (see below).

T1 sequence (P05362 28-480 limits assumed, form in doubt): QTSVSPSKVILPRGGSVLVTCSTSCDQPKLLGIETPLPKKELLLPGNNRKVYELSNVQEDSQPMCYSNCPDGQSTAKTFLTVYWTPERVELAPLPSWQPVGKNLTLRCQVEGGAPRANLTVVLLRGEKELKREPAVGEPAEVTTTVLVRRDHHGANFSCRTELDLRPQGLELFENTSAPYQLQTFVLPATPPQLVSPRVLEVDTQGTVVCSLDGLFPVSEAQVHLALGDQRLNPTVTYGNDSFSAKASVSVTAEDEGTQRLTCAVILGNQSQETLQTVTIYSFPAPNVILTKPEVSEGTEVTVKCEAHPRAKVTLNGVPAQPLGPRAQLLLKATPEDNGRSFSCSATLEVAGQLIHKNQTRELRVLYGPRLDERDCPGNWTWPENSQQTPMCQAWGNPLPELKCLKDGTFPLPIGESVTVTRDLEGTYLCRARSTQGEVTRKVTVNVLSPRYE

Row | Binder | ICAM-1 (% ASFI of HA)
1 | αL I domain clone m7 (F292S), yeast-displayed (receptor, yeast surface display; not shown: Aga2, linker and hemagglutinin tag of pCTCON; c-myc tag) NVDLVFLFDGSMSLQPDEFQKILDFMKDVMKKLSNTSYQFAAVQFSTSYKTEFDFSDYVKWKDPDALLKHVKHMLLLTNTFGAINYVATEVFREELGARPDATKVLIIITDGEATDSGNIDAAKDIIRYIIGIGKHFQTKESQETLHKFASKPASEFVKILDTSEKLKDLFTELQKKIYVIEGTSKQDLT | 47 % ASFI of HA
2 | αL I domain clone m10 (F265L, E293G, K294E, K296E, V308I), yeast-displayed (receptor, yeast surface display; not shown: Aga2, linker and hemagglutinin tag of pCTCON; c-myc tag) NVDLVFLFDGSMSLQPDEFQKILDFMKDVMKKLSNTSYQFAAVQFSTSYKTEFDFSDYVKWKDPDALLKHVKHMLLLTNTFGAINYVATEVFREELGARPDATKVLIIITDGEATDSGNIDAAKDIIRYIIGIGKHLQTKESQETLHKFASKPASEFVKILDTFGELEDLFTELQKKIYIIEGTSKQDLT | 16 % ASFI of HA
3 | αL I domain clone f2 (L289G), yeast-displayed (receptor, yeast surface display; not shown: Aga2, linker and hemagglutinin tag of pCTCON; c-myc tag) NVDLVFLFDGSMSLQPDEFQKILDFMKDVMKKLSNTSYQFAAVQFSTSYKTEFDFSDYVKWKDPDALLKHVKHMLLLTNTFGAINYVATEVFREELGARPDATKVLIIITDGEATDSGNIDAAKDIIRYIIGIGKHFQTKESQETLHKFASKPASEFVKIGDTFEKLKDLFTELQKKIYVIEGTSKQDLT | 74 % ASFI of HA
4 | αL I domain clone m5 (L274I, S279T), yeast-displayed (receptor, yeast surface display; not shown: Aga2, linker and hemagglutinin tag of pCTCON; c-myc tag) NVDLVFLFDGSMSLQPDEFQKILDFMKDVMKKLSNTSYQFAAVQFSTSYKTEFDFSDYVKWKDPDALLKHVKHMLLLTNTFGAINYVATEVFREELGARPDATKVLIIITDGEATDSGNIDAAKDIIRYIIGIGKHFQTKESQETIHKFATKPASEFVKILDTFEKLKDLFTELQKKIYVIEGTSKQDLT | 51 % ASFI of HA
5 | αL I domain clone m1 (I258T), yeast-displayed (receptor, yeast surface display; not shown: Aga2, linker and hemagglutinin tag of pCTCON; c-myc tag) NVDLVFLFDGSMSLQPDEFQKILDFMKDVMKKLSNTSYQFAAVQFSTSYKTEFDFSDYVKWKDPDALLKHVKHMLLLTNTFGAINYVATEVFREELGARPDATKVLIIITDGEATDSGNIDAAKDIIRYTIGIGKHFQTKESQETLHKFASKPASEFVKILDTFEKLKDLFTELQKKIYVIEGTSKQDLT | 10 % ASFI of HA
6 | αL I domain clone f8 (L295A), yeast-displayed (receptor, yeast surface display; not shown: Aga2, linker and hemagglutinin tag of pCTCON; c-myc tag) NVDLVFLFDGSMSLQPDEFQKILDFMKDVMKKLSNTSYQFAAVQFSTSYKTEFDFSDYVKWKDPDALLKHVKHMLLLTNTFGAINYVATEVFREELGARPDATKVLIIITDGEATDSGNIDAAKDIIRYIIGIGKHFQTKESQETLHKFASKPASEFVKILDTFEKAKDLFTELQKKIYVIEGTSKQDLT | 25 % ASFI of HA
7 | αL I domain clone m3 (G262E), yeast-displayed (receptor, yeast surface display; not shown: Aga2, linker and hemagglutinin tag of pCTCON; c-myc tag) NVDLVFLFDGSMSLQPDEFQKILDFMKDVMKKLSNTSYQFAAVQFSTSYKTEFDFSDYVKWKDPDALLKHVKHMLLLTNTFGAINYVATEVFREELGARPDATKVLIIITDGEATDSGNIDAAKDIIRYIIGIEKHFQTKESQETLHKFASKPASEFVKILDTFEKLKDLFTELQKKIYVIEGTSKQDLT | 4 % ASFI of HA
8 | αL I domain clone m5a (L274I), yeast-displayed (receptor, yeast surface display; not shown: Aga2, linker and hemagglutinin tag of pCTCON; c-myc tag) NVDLVFLFDGSMSLQPDEFQKILDFMKDVMKKLSNTSYQFAAVQFSTSYKTEFDFSDYVKWKDPDALLKHVKHMLLLTNTFGAINYVATEVFREELGARPDATKVLIIITDGEATDSGNIDAAKDIIRYIIGIGKHFQTKESQETIHKFASKPASEFVKILDTFEKLKDLFTELQKKIYVIEGTSKQDLT | 91 % ASFI of HA
9 | αL I domain clone m8 (F292S, P281E), yeast-displayed (receptor, yeast surface display; not shown: Aga2, linker and hemagglutinin tag of pCTCON; c-myc tag) NVDLVFLFDGSMSLQPDEFQKILDFMKDVMKKLSNTSYQFAAVQFSTSYKTEFDFSDYVKWKDPDALLKHVKHMLLLTNTFGAINYVATEVFREELGARPDATKVLIIITDGEATDSGNIDAAKDIIRYIIGIGKHFQTKESQETLHKFASKEASEFVKILDTSEKLKDLFTELQKKIYVIEGTSKQDLT | 54 % ASFI of HA
10 | αL I domain clone f6 (F292G), yeast-displayed (receptor, yeast surface display; not shown: Aga2, linker and hemagglutinin tag of pCTCON; c-myc tag) NVDLVFLFDGSMSLQPDEFQKILDFMKDVMKKLSNTSYQFAAVQFSTSYKTEFDFSDYVKWKDPDALLKHVKHMLLLTNTFGAINYVATEVFREELGARPDATKVLIIITDGEATDSGNIDAAKDIIRYIIGIGKHFQTKESQETLHKFASKPASEFVKILDTGEKLKDLFTELQKKIYVIEGTSKQDLT | 91 % ASFI of HA
11 | αL I domain clone f4 (L289W), yeast-displayed (receptor, yeast surface display; not shown: Aga2, linker and hemagglutinin tag of pCTCON; c-myc tag) NVDLVFLFDGSMSLQPDEFQKILDFMKDVMKKLSNTSYQFAAVQFSTSYKTEFDFSDYVKWKDPDALLKHVKHMLLLTNTFGAINYVATEVFREELGARPDATKVLIIITDGEATDSGNIDAAKDIIRYIIGIGKHFQTKESQETLHKFASKPASEFVKIWDTFEKLKDLFTELQKKIYVIEGTSKQDLT | 51 % ASFI of HA
12 | αL I domain clone f10 (L295Q), yeast-displayed (receptor, yeast surface display; not shown: Aga2, linker and hemagglutinin tag of pCTCON; c-myc tag) NVDLVFLFDGSMSLQPDEFQKILDFMKDVMKKLSNTSYQFAAVQFSTSYKTEFDFSDYVKWKDPDALLKHVKHMLLLTNTFGAINYVATEVFREELGARPDATKVLIIITDGEATDSGNIDAAKDIIRYIIGIGKHFQTKESQETLHKFASKPASEFVKILDTFEKQKDLFTELQKKIYVIEGTSKQDLT | 4 % ASFI of HA
13 | αL I domain clone f11 (L295W), yeast-displayed (receptor, yeast surface display; not shown: Aga2, linker and hemagglutinin tag of pCTCON; c-myc tag) NVDLVFLFDGSMSLQPDEFQKILDFMKDVMKKLSNTSYQFAAVQFSTSYKTEFDFSDYVKWKDPDALLKHVKHMLLLTNTFGAINYVATEVFREELGARPDATKVLIIITDGEATDSGNIDAAKDIIRYIIGIGKHFQTKESQETLHKFASKPASEFVKILDTFEKWKDLFTELQKKIYVIEGTSKQDLT | 81 % ASFI of HA
14 | αL I domain clone m11 (L295P, Q303R), yeast-displayed (receptor, yeast surface display; not shown: Aga2, linker and hemagglutinin tag of pCTCON; c-myc tag) NVDLVFLFDGSMSLQPDEFQKILDFMKDVMKKLSNTSYQFAAVQFSTSYKTEFDFSDYVKWKDPDALLKHVKHMLLLTNTFGAINYVATEVFREELGARPDATKVLIIITDGEATDSGNIDAAKDIIRYIIGIGKHFQTKESQETLHKFASKPASEFVKILDTFEKPKDLFTELRKKIYVIEGTSKQDLT | 107 % ASFI of HA
15 | αL I domain clone f3 (L289P), yeast-displayed (receptor, yeast surface display; not shown: Aga2, linker and hemagglutinin tag of pCTCON; c-myc tag) NVDLVFLFDGSMSLQPDEFQKILDFMKDVMKKLSNTSYQFAAVQFSTSYKTEFDFSDYVKWKDPDALLKHVKHMLLLTNTFGAINYVATEVFREELGARPDATKVLIIITDGEATDSGNIDAAKDIIRYIIGIGKHFQTKESQETLHKFASKPASEFVKIPDTFEKLKDLFTELQKKIYVIEGTSKQDLT | 24 % ASFI of HA
16 | αL I domain clone m4 (F134L, K252E, F265S), yeast-displayed (receptor, yeast surface display; not shown: Aga2, linker and hemagglutinin tag of pCTCON; c-myc tag) NVDLVLLFDGSMSLQPDEFQKILDFMKDVMKKLSNTSYQFAAVQFSTSYKTEFDFSDYVKWKDPDALLKHVKHMLLLTNTFGAINYVATEVFREELGARPDATKVLIIITDGEATDSGNIDAAEDIIRYIIGIGKHSQTKESQETLHKFASKPASEFVKILDTFEKLKDLFTELQKKIYVIEGTSKQDLT | 31 % ASFI of HA
17 | αL I domain clone m2 (I258T, T267A, F277A), yeast-displayed (receptor, yeast surface display; not shown: Aga2, linker and hemagglutinin tag of pCTCON; c-myc tag) NVDLVFLFDGSMSLQPDEFQKILDFMKDVMKKLSNTSYQFAAVQFSTSYKTEFDFSDYVKWKDPDALLKHVKHMLLLTNTFGAINYVATEVFREELGARPDATKVLIIITDGEATDSGNIDAAKDIIRYTIGIGKHFQAKESQETLHKAASKPASEFVKILDTFEKLKDLFTELQKKIYVIEGTSKQDLT | 10 % ASFI of HA
18 | αL I domain clone m6 (F209Y, L289P), yeast-displayed (receptor, yeast surface display; not shown: Aga2, linker and hemagglutinin tag of pCTCON; c-myc tag) NVDLVFLFDGSMSLQPDEFQKILDFMKDVMKKLSNTSYQFAAVQFSTSYKTEFDFSDYVKWKDPDALLKHVKHMLLLTNTYGAINYVATEVFREELGARPDATKVLIIITDGEATDSGNIDAAKDIIRYIIGIGKHFQTKESQETLHKFASKPASEFVKIPDTFEKLKDLFTELQKKIYVIEGTSKQDLT | 33 % ASFI of HA
19 | αL I domain clone f7 (F292P), yeast-displayed (receptor, yeast surface display; not shown: Aga2, linker and hemagglutinin tag of pCTCON; c-myc tag) NVDLVFLFDGSMSLQPDEFQKILDFMKDVMKKLSNTSYQFAAVQFSTSYKTEFDFSDYVKWKDPDALLKHVKHMLLLTNTFGAINYVATEVFREELGARPDATKVLIIITDGEATDSGNIDAAKDIIRYIIGIGKHFQTKESQETLHKFASKPASEFVKILDTPEKLKDLFTELQKKIYVIEGTSKQDLT | 5 % ASFI of HA
20 | αL I domain clone m9 (F292S, Y177R, L204Q), yeast-displayed (receptor, yeast surface display; not shown: Aga2, linker and hemagglutinin tag of pCTCON; c-myc tag) NVDLVFLFDGSMSLQPDEFQKILDFMKDVMKKLSNTSYQFAAVQFSTSRKTEFDFSDYVKWKDPDALLKHVKHMLQLTNTFGAINYVATEVFREELGARPDATKVLIIITDGEATDSGNIDAAKDIIRYIIGIGKHFQTKESQETLHKFASKPASEFVKILDTSEKLKDLFTELQKKIYVIEGTSKQDLT | 28 % ASFI of HA
21 | αL I domain clone f9 (L295P), yeast-displayed (receptor, yeast surface display; not shown: Aga2, linker and hemagglutinin tag of pCTCON; c-myc tag) NVDLVFLFDGSMSLQPDEFQKILDFMKDVMKKLSNTSYQFAAVQFSTSYKTEFDFSDYVKWKDPDALLKHVKHMLLLTNTFGAINYVATEVFREELGARPDATKVLIIITDGEATDSGNIDAAKDIIRYIIGIGKHFQTKESQETLHKFASKPASEFVKILDTFEKPKDLFTELQKKIYVIEGTSKQDLT | 5 % ASFI of HA
22 | αL I domain clone f5 (F292A), yeast-displayed (receptor, yeast surface display; not shown: Aga2, linker and hemagglutinin tag of pCTCON; c-myc tag) NVDLVFLFDGSMSLQPDEFQKILDFMKDVMKKLSNTSYQFAAVQFSTSYKTEFDFSDYVKWKDPDALLKHVKHMLLLTNTFGAINYVATEVFREELGARPDATKVLIIITDGEATDSGNIDAAKDIIRYIIGIGKHFQTKESQETLHKFASKPASEFVKILDTAEKLKDLFTELQKKIYVIEGTSKQDLT | 29 % ASFI of HA
